# Patent publication US20200207835A1, “SRCP1-BASED THERAPY FOR DISEASES ASSOCIATED WITH PROTEIN AGGREGATION” (THE MEDICAL COLLEGE OF WISCONSIN, INC., priority 2017, published 2020)
# Key:
# Format in all cases: cell-based, human
# [1] = test system: HEK293 cells; assay: Cell viability assay (CellTiter-Glo); conditions: HEK293 transfected with RFPSRCP1 alone
# Procedure: HEK293 cells were transfected as described with RFP or ^RFPSRCP1. Following transfections, cells were diluted to 500,000 cells/mL with 50,000 cells plated per well in duplicate from each transfection reaction in a 96-well plate. Serial dilutions were then performed down each column of the plate down to 390 cells per well. Cells were cultured for an additional 24 hours, then lysed using the CellTiter-Glo Kit (Promega). Luminescence was quantified between 565-700 nm wavelengths on a Spark microplate reader (Tecan) to determine cell viability.
# [2] = test system: ^GFPHtt^ex1Q74; assay: GFPHttex1Q74 aggregation in transfected HEK293 cells (fluorescent/confocal microscopy, western blot, filter trap assay)
# Procedure: Transfections were performed with Lipofectamine 2000 (Invitrogen by ThermoFisher Scientific) and adapted from the manufacturer's instructions. Briefly, cells were plated on either 12-well or 6-well plates and transfected at 50-70% confluency. For 12-well transfections, 0.833 μg of DNA per well was mixed with 50 μl of OptiMEM (Gibco by Life Technologies) media and incubated for 5 minutes at room temperature. Lipofectamine 2000 in a 2:1, μl of lipofectamine: μg DNA ratio was mixed with 50 μl of OptiMEM media and incubated for 5 minutes at room temperature. DNA and Lipofectamine were mixed and incubated for 15 minutes at room temperature. Fresh media was added to cells prior to the addition of DNA and lipofectamine. For 6-well transfections, the same protocol is followed except that 1.25 μg of DNA per well and 100 μl of OptiMEM for dilution was used. Media was changed 24 hours post-transfection and cells were harvested 48 hours post-transfection. Prior to harvesting, HEK293 cells were washed three times with ice-cold 1×PBS. Samples were then lysed with either 150 μl of ice-cold NETN (with protease inhibitor) or 1× Laemmli Buffer and sonicated twice for 5-8 seconds.
# (§1) For proteasome inhibition, 30 hours post-transfection cells would be replenished with DMEM containing either DMSO or 10 μM MG132 (Sigma-Aldrich) for 18 hours. Prior to harvesting, HEK293 cells were washed three times with ice-cold 1×PBS and imaged by fluorescent microscopy with a 20× objective using the Evos FL Auto Imaging System. Cells were then lysed with either 150 μl of ice-cold NETN (with protease inhibitor) or 1× Laemmli Buffer and sonicated twice for 5-8 seconds.
# as §1, with “autophagy” for “proteasome”, “24” for “30”, “and treated with” for “containing”, “5 mM 3-Methyladenine” for “10 μM MG132”, “an additional 24” for “18”
# For HEK293s′, slides were prepared by placing coverslips in 6-well plates and incubating with poly-L-lysine hydrobromide (Sigma-Aldrich) for an hour at room temperature. Coverslips were rinsed with 1×PBS three times prior to plating HEK293 cells. HEK293 cells were then transfected and fixed by incubation in 4% paraformaldehyde for 20 minutes at room temperature. Coverslips were mounted with ProLong Gold Antifade reagent and imaged with a 20× objective using the Evos FL Auto Imaging System or with a 40× objective using the Leica TCS SP5 Confocal Microscope System. For confocal, Z-stack images were obtained at […] intervals at 1024×1024 pixel resolution and merged using Fiji.
# Following sonication, lysates were subjected to BCA protein assay (ThermoFisher Scientific) and prepared for loading by the addition of 4× laemmli buffer and boiling for four minutes. Samples then loaded on SDS-polyacrylamide gels, ran at 175 V, and transferred onto an Immuno-blot PVDF membrane (Biorad) overnight at 30 V. Membranes were blocked in 5% milk in TBS with 0.1% Tween (TBST) and incubated in primary antibody overnight at 4° C. Following primary, membranes were washed for 10 minutes at room temperature three times with TBST and incubated in secondary for an hour at room temperature. Membranes were then washed for 10 minutes at room temperature three times with TBST and then incubated in buffer for enhanced chemiluminescence (50 mM Na2HPO4; 50 mM Na2CO3; 10 mM NaBO3.4H2O; 250 mM luminol; 90 mM coumaric acid).
# For HEK293 lysates, BCA protein assay was used to determine protein concentration. […]
# [3] = test system: wild-type or mutant α-synuclein; assay: α-synuclein levels in HEK293 cells (western blot); conditions: HEK293, 48 hours, overexpression of SRCP1
# Procedure: HEK 293 cells were transfected with either wild-type or mutant α-synuclein in the presence or absence of SRCP1. Cells were collected 48 hours later and analyzed by SDS-PAGE and western blot.
# [4] = test system: mutant (G85R or A4V) SOD1; assay: Aggregated mutant SOD1 in HEK293 cells (ultracentrifugation, western blot); conditions: HEK293, 48 hours, overexpression of SRCP1
# Procedure: HEK293 cells were transfected with either wild-type or mutant (G85R or A4V) SOD1 either in the presence or absence of SRCP1 for 48 hours. Cells were then collected and lysed prior to ultracentrifugation to isolate aggregated proteins. After ultracentrifugation cell protein in the pellet was suspended in Laemmli buffer and analyzed by SDS-PAGE and western blot
# [5] = HEK293, co-expression, fluorescent microscopy
# Sequence of ^GFPHtt^ex1Q74 (P42858 with tags, fused parts or gaps limits assumed): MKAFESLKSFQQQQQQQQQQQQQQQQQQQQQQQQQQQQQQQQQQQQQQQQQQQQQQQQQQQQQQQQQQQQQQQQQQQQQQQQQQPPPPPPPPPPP
molecule,measurement,setting,value
"SRCP1: Dictyostelium discoideum serine-rich chaperone protein 1 (SEQ ID NO:2), expressed in cells as RFP-tagged construct (protein, RFP tag; Dictyostelium discoideum AX4) MTILSTFTSFSNPPKLNKSSFSSSTGSSLSMGSNSFAWGGGWGGFGGPKGGSFNVDIAGNLIWGVYGFIRGGVGLVKWRGLQKGCKQP",toxicity (viability by CellTiter-Glo),[1],did not display any toxicity
same,polyQ aggregation under proteasome inhibition,"[2]; HEK293, SRCP1 in the presence of proteasome inhibition",prevented polyQ aggregation
same,"levels of monomeric, soluble GFPHttex1Q74","[2]; HEK293, co-expression","no effect on the levels of monomeric, soluble"
same,soluble GFPHttex1Q74 levels under autophagy inhibition,"[2]; HEK293, co-expression of RFPSRCP1 plus 5 mM 3-MA",did not lead to a significant increase in soluble
same,soluble GFPHttex1Q74 under proteasome inhibition,"[2]; HEK293, co-expression of RFPSRCP1 plus proteasome inhibitor, compared to proteasome inhibition alone",even further increase in the amount of soluble
same,number of GFPHttex1Q74 puncta,[2]; [5],significantly decreases the number of puncta
same,size of GFPHttex1Q74 puncta,[2]; [5],significantly decreases ^GFPHtt^ex1Q74 puncta size
same,amount of GFPHttex1Q74 aggregates,"[2]; HEK293, co-expression, SDS-PAGE, filter trap assay, confocal microscopy",greatly reduced the amount of ^GFPHtt^ex1Q74 aggregates
same,α-synuclein levels,[3],results in a reduction of α-synuclein
same,levels of aggregated mutant SOD1,[4],reduces the levels of aggregated mutant SOD1
